{
  "source": "patent US20210270842A1",
  "about": "(DYAX, published 2021)",
  "binders": {"B1": {"name": "559B-M0004-B04 (Fab, V domains shown)", "VH": "EVQLLESGGGLVQPGGSLRLSCAASGFTFSFYVMVWVRQAPGKGLEWVSGISPSGGNTAYADSVKGRFTISRDNSKNTLYLQMNSLRAEDTAVYYCARKLFYYDDTKGYFDFWGQGTLVTVSS", "VL": "not shown", "notes": "also called M004-B04"}},
  "key": {"[1]": {"target": "T1, cleaved high molecular weight kininogen (HMWK) (human, UniProt P01042 19-380; P01042 390-644)", "T1 construct": "also called cleaved HMWK; 2-chain HMWK", "T1 sequence 1": "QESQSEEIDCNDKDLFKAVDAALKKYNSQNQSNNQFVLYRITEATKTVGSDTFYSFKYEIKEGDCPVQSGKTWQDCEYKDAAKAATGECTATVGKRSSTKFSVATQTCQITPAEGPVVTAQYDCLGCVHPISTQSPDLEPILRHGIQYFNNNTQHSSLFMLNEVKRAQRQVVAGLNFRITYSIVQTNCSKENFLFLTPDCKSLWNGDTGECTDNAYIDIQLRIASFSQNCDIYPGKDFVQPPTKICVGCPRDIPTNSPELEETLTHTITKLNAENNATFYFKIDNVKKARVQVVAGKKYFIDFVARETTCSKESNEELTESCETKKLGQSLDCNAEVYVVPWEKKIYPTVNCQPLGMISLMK", "T1 sequence 2": "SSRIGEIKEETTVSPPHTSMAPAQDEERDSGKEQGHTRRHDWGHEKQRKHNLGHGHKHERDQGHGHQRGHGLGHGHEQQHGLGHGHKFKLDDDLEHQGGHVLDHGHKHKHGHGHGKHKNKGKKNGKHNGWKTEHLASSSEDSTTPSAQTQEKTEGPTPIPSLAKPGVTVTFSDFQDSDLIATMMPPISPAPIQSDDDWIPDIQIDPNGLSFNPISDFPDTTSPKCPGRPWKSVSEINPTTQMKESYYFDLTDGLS", "assay": "2-chain HMWK sandwich ELISA standard curve, citrated plasma spiked with 2-chain HMWK, 10% final dilution; capture Fab M0004-B04 as in FIG. 12 B"}, "[2]": {"target": "T2, intact high molecular weight kininogen (HMWK) (Homo sapiens, UniProt P01042 19-644)", "T2 construct": "also called intact HMWK; 1-chain HMWK", "T2 sequence": "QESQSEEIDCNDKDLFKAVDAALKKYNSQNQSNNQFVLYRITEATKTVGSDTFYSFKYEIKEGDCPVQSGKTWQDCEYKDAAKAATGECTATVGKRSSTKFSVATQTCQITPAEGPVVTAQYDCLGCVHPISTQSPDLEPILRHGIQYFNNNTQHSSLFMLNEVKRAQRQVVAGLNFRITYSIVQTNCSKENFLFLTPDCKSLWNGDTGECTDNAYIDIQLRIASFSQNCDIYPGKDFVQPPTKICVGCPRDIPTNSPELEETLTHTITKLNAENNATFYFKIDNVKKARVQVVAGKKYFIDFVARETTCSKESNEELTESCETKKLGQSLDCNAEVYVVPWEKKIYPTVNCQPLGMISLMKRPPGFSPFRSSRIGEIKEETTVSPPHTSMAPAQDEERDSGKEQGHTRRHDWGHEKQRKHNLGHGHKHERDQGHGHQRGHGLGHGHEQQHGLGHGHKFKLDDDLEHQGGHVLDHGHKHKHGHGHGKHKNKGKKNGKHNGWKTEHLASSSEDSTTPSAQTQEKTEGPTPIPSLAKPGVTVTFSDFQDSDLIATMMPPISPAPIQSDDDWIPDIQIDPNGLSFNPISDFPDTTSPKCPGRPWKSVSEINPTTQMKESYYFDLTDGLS", "assay": "optimized sandwich ELISA: M004-B04 capture, detection 11H05 + 13B12; value = C of the printed 4-P fit; the curve has no upper plateau in the range: last point about 0.95 at about 250 ng/mL, fitted line about 1.5 at 1000 ng/mL, so C and D are extrapolated", "experimental": "(§1) The following day, the plate was washed and then blocked with 2% BSA (Protease/IgG free) in PBS buffer. Following a wash, samples containing cleaved HMWK in 0.1% BSA buffer in PBS with 0.05% Tween-20 (2-Chain HMWK assay buffer). Purified protein standards (e.g., 2-chain HMWK, intact HMWK or LMWK) were spiked into HMWK-deficient plasma and diluted 1:320 in 2-chain HMWK assay buffer. Following plate washing with PBST, a mixture of 2 mouse monoclonal antibodies (11H05 and 13B12) at 1 μg/mL in 2-chain HMWK assay buffer were added for 1 hour at room temperature. Unbound detection antibodies were washed and a 1:2000 dilution of goat anti-mouse secondary antibody conjugated to horseradish peroxidase (HRP) was added. The assay containing the secondary antibody was incubated for 1 hour at room temperature, and unbound secondary antibody was removed by washing with 2-chain HMWK assay buffer. Signal was detected by the addition of 3,3′,5,5′-tetramethylbenzidine (TMB), an HRP substrate. The reaction was stopped with phosphoric acid. Hydrolysis of a TMB substrate was detected using a microplate reader at 450 nm-630 nm (FIG. 3). […] Using these immunoassay conditions, specifically binding to cleaved HMWK was detected."}, "[3]": {"target": "T2, intact high molecular weight kininogen …", "assay": "sandwich ELISA: Fab coated on 96-well plate, kininogen titrated, detection 11H05 + 13B12 and goat anti-mouse-HRP; value = C, midpoint of the printed 4-P fit; 1-chain HMWK in SBT buffer; weak signal: only two points drawn (about 0.2 at 200, about 0.5 at 2000), fitted top 0.627 against 2.85 for 2-chain HMWK", "text": "Purified cleaved HMWK was spiked into SBT assay buffer (circles) or HMWK-deficient plasma (squares). Purified intact HMWK was spiked into SBT assay buffer (triangles). Purified LMWK was spiked into SBT assay buffer (diamonds). The y-axis presents the ELISA signal in absorbance units, and the x-axis presents the concentration of kininogen in μg/mL.\nas §1, with “The assay containing the secondary antibody was incubated for 1 hour at room temperature, and unbound secondary antibody was removed by washing with 2-chain HMWK assay buffer.” left out, “The reaction was stopped with phosphoric acid.” left out"}, "[4]": {"target": "T1, cleaved high molecular weight kininogen …", "assay": "ELISA on coated M004-B04, 2-chain HMWK titrated after preincubation of the plate with GCP28 peptide at 250 µg/mL; value = C of the printed 4-P fit; triangles, curve on the control's (the callout box on the graph names this curve HKH20: see recheck)", "experimental": "as §1, with “Following” for “The following day, the plate was washed and then blocked with 2% BSA (Protease/IgG free) in PBS buffer. Following a wash, samples containing cleaved HMWK in 0.1% BSA buffer in PBS with 0.05% Tween-20 (2-Chain HMWK assay buffer). Purified protein standards (e.g., 2-chain HMWK, intact HMWK or LMWK) were spiked into HMWK-deficient plasma and diluted 1:320 in 2-chain HMWK assay buffer. Following”\nTo perform the assay, the kininogen peptides were diluted to 250 μg/mL and allowed to preincubate on assay plate. Then, purified 2-chain HMWK in deficient human plasma was diluted 160 and then added to plate."}},
  "data": [
    {"binder": "B1", "values": [
      {"measurement": "EC50 (read off the curve)", "setting": "[1]", "value": "~0.1", "unit": "µg/mL"},
      {"measurement": "EC50", "setting": "[2]", "value": 0.355, "unit": "µg/mL"},
      {"measurement": "EC50", "setting": "[3]", "value": 1110, "unit": "µg/mL"},
      {"measurement": "EC50", "setting": "[4]", "value": 0.00941, "unit": "µg/mL"}
    ]}
  ]
}
